# T1: STAT1 N domain (aminoterminal domain), recombinant
# T1 chain: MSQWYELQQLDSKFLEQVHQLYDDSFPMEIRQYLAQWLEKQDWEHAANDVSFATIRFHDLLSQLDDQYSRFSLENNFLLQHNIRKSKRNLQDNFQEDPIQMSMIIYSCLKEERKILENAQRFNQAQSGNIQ
# Biological target: T1, STAT1 N domain (aminoterminal domain), …
# Test: AUC; sedimentation equilibrium of purified recombinant N domains, homo- and heterotypic associations (dimer to monomers); STAT1 N domain and mEGFP-tagged STAT2 N domain at final equimolar concentrations of 2.5, 10, and 40 μM
# Settings: both partners purified
Binder,fold stronger than STAT2 N domain homodimers [fold],fold stronger than STAT1 N domain homodimers [fold]
"STAT1 N domain (aminoterminal domain), recombinant (domain or fragment, limits not printed (S1 Text/ref. 22); N domain taken up to the start of the conventional STAT1 core fragment (132-713); Strep-tag omitted / limits not printed (S1 Text/ref. 22); N domain taken up to …) MSQWYELQQLDSKFLEQVHQLYDDSFPMEIRQYLAQWLEKQDWEHAANDVSFATIRFHDLLSQLDDQYSRFSLENNFLLQHNIRKSKRNLQDNFQEDPIQMSMIIYSCLKEERKILENAQRFNQAQSGNIQ",~50,–
"STAT2 N domain (aminoterminal domain), recombinant, mEGFP-tagged (domain or fragment, limits not given; N domain taken up to the start of the core region (P52630 region from 138), homologous to STAT1 1-131; mEGFP and Strep-tag omitted / limits not printed (S1 Text/ref. 22); N domain) not shown",–,≥ 1000
